Consider 83 variants from the RNAGym collection of RNA variant scans (doi:10.1073/pnas.2313332121).

B1: TPR 5TU (parent)
chain: GGAUCUUCUCGAUCUAACAAAAAAGACAAAUCUGCCACAAAGCUUGAGAGCAUCUUCGGAUGCAGAGGCGGCAGCCUUCGGUGGCGCGAUAGCGCCAACGUUCUCAACUAUGACACGCAAAACGCGUGCUCCGUUGAAUGGAGUUUAUCAUG

This sample holds only a part of the variants without activity.

The variants in this data set derive from B1. The experiment in a line: polymerase ribozyme fitness, log enrichment relative to wild type (log ratio); higher = more active; in vitro selection for triplet polymerase activity. The procedure, abridged: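 Both subunits of a heterodimeric triplet polymerase ribozyme were given their own mutant library, built by PCR and transcribed. Each library was annealed with a biotinylated primer, the partner subunit and triplets, incubated frozen at −7 °C, and its extended constructs gel-excised, captured on streptavidin beads and amplified by RT-PCR, all in one round done in triplicate. Fitness is the logarithm of genotype enrichment relative to wild-type enrichment, with replicates averaged by inverse-variance weighting. That logarithm is base 2, and Illumina-sequenced genotypes needed ≥10 input reads and ≥1 read per output.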
For the variant U6A C8A A12G C43U A64C G86C C87A, the “polymerase ribozyme fitness (log ratio)” value was ≤ -4.2.
Turning to C5U A19G C57U G84U G117U A120U, the “polymerase ribozyme fitness (log ratio)” value was -2.48.
Then U6C A23G A91U A106G, with ≤ -4.2; and C5U A20C A29G A115C U130G C132U U146C, with ≤ -4.2; and U6A U56A U82G C103U, with -1.06.
Regarding U6A A22C G50A U61G C79U C85A G143U A147C, the “polymerase ribozyme fitness (log ratio)” value was ≤ -4.2.
As for C5U U33A G88U C96U U127C, the figure is ≤ -4.2.
Take U6G G11A G48U G50U A66G U90A G100U U102A A122C: the “polymerase ribozyme fitness (log ratio)” value was ≤ -4.2.
In the case of U6A G34A C69U A73G U77A C79A C87A C96U C105A A107U G136A U139A, the “polymerase ribozyme fitness (log ratio)” value is ≤ -4.2.
As for U6A G80C G94A, the figure is ≤ -4.2; as for U6G A28U, -3.76.
As to C5U A29U G62A G67C A142U, the “polymerase ribozyme fitness (log ratio)” value was ≤ -4.2.
As for U6A A22U G59U A73U U109G, the “polymerase ribozyme fitness (log ratio)” value is -3.52.
As for U6C A60G G117U, the figure is -1.75; as for C5U A49C G81U C93G, ≤ -4.2.
Then U6G A29U A73G U77C C95U A107U, with ≤ -4.2; and U6G C99G G141C, with -2.05.
As for U6G G48C A52G C96A A121U G140A, the figure is ≤ -4.2; as for U6G G81C A91G, -2.46.
As to U6C C87A, the “polymerase ribozyme fitness (log ratio)” value is ≤ -4.2.
Then U6C C87U, with -1.52.
Consider U6G A21U G94A U104G U127A, for which the “polymerase ribozyme fitness (log ratio)” value was ≤ -4.2.
As for U6G C10G A21G G71A C76U C85A, the figure is ≤ -4.2; as for U6G A19U G50C G88U C99G, ≤ -4.2.
U6A C35A C63U C69U C76A G83C: the “polymerase ribozyme fitness (log ratio)” value is ≤ -4.2.
As for C5U C54U U82A C95G A150U, the figure is -1.62; as for U6G A26C G136A A142U U146A, ≤ -4.2.
For the variant C5U G84A C95A, the “polymerase ribozyme fitness (log ratio)” value is 0.351.
Then U6G G50C, with -3.07.
Then U6G U9C A12C U45A C76G A91C C96G, with ≤ -4.2; and U6G U13G C57G, with -2.26; and U6G G50U C85U C116U, with 0.202.
Then C5U A41U G68A G94A C99G U102G A115G C125G, with ≤ -4.2.
Turning to C5U A19G A23G G58U G81A G94C C116A C129U U135C U146G, the “polymerase ribozyme fitness (log ratio)” value is ≤ -4.2.
As for U6C C10G, the “polymerase ribozyme fitness (log ratio)” value is -3.97.
As for U6A C69G G84U U145C, the figure is -1.67.
Then U6C C14U U44A G68U G92U A98G C99G, with ≤ -4.2.
Then U6G C35U C75A A98G A121U, with ≤ -4.2; and C5U A40G G84A A97G, with -3.39.
With C5U U6G C79G, the “polymerase ribozyme fitness (log ratio)” value was ≤ -4.2.
Then U6G A41C A49G C95G, with -2.03; and U6C A41G U56G G59A U61G C76A A91C C95G G124A, with ≤ -4.2; and U6A C8G A60C G62A C85A C103A, with ≤ -4.2.
Then U6A G88C C116U, with ≤ -4.2; and U6A U9G C35G A60G C69G G88C C96A, with ≤ -4.2.
Then C5U A19G U77A C95U, with ≤ -4.2.
In the case of C5U U13A C57G G141U, the “polymerase ribozyme fitness (log ratio)” value is -1.34.
Take C5U G25C G42U U61A A107U G133U A142C U148A: the “polymerase ribozyme fitness (log ratio)” value is ≤ -4.2.
Then U6A U90G C95U U109G A137C, with ≤ -4.2.
Then C5U U13A A23G C36U G46A A97U C103U, with ≤ -4.2.
As for U6G A22G U139A, the figure is ≤ -4.2; as for U6A C54A C95G A98U, -2.26; as for U6A C14A C32U G74A A138C, ≤ -4.2.
For U6G G58C C131A, the “polymerase ribozyme fitness (log ratio)” value is -2.15.
Then C5U G46U C85G, with -2.05; and C5U C8G U9G U61G U77A G84A U146C, with ≤ -4.2; and U6G C93A, with -1.75.
On to U6G C93G, for which the “polymerase ribozyme fitness (log ratio)” value is -3.18.
As for U6C A60U G86A, the figure is -3.49; as for C5U G84A, 0.439.
As to U6C A40U U56A G59U C87U A98U C118U, the “polymerase ribozyme fitness (log ratio)” value is -0.984.
Then C5U C51U G84A A150G, with -2.47; and U6G A29C A73U G86U, with ≤ -4.2; and U6A G58U U61A A66G U82C U139C G152A, with ≤ -4.2.
Then U6G A22U A40G C57A G94A, with -2.43; and C5U U56A C75U G83C, with -0.766; and U6G C87U, with -0.579.
Consider U6G C87G, for which the “polymerase ribozyme fitness (log ratio)” value was -3.6.
As for U6C C10A A24U A110G, the figure is ≤ -4.2; as for U6C C54G C93A C116G G141A, -4.17.
For the variant U6A C14G C85G U90G A113U, the “polymerase ribozyme fitness (log ratio)” value is ≤ -4.2.
Then U6G C57G C85U A98U, with -1.17.
As for U6G A28C C76G G92U, the figure is ≤ -4.2.
Then U6C U31G G50C C69G G94C A119U U151A, with ≤ -4.2; and C5U C38U C63A U77A C95U U127G G136U U144C, with ≤ -4.2; and C5U A52C C76U C93A C116U C123G, with -3.61.
Take U6A A26C A122C: the “polymerase ribozyme fitness (log ratio)” value is -2.04.
For the variant C5U U15G A39C A66U C95U, the “polymerase ribozyme fitness (log ratio)” value is -4.2.
As for U6A G81C G94U C125U, the figure is -2.57; as for U6A C69A G92U A98G U111C G152C, ≤ -4.2; as for U6C C8U U15G, -2.42.
U6C A17U A64U A73U C85G U127A U130G A142G: the “polymerase ribozyme fitness (log ratio)” value was ≤ -4.2.
As for U6G C14U, the figure is -1.09.
